No end group written: not given here.
T1: mouse αMSH (MC-1) receptor (mouse) (UniProt Q01727)
T1 sequence: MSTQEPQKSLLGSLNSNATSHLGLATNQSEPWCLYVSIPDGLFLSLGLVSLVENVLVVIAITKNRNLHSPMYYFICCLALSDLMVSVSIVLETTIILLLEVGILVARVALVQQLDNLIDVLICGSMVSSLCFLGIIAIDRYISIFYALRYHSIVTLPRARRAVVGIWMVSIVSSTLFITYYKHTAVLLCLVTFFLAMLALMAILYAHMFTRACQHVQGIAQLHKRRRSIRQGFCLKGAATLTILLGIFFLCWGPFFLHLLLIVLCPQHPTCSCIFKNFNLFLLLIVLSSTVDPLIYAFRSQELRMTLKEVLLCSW

T2: human melanocortin 4 receptor (human, UniProt P32245 1-332)
T2 chain: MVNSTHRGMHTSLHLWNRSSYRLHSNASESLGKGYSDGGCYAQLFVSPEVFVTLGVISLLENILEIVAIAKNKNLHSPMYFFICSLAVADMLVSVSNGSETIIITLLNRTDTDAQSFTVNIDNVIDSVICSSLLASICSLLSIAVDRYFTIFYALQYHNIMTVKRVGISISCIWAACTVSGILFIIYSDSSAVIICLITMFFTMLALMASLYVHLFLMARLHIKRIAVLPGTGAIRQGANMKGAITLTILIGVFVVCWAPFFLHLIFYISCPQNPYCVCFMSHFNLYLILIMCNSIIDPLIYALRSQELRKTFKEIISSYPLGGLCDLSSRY

T3: murine agouti peptide (mouse, UniProt Q03288 23-131, limits assumed)
T3 construct: Preparation was not homogeneous; also called endogenous mouse agouti peptide
T3 sequence (looked up): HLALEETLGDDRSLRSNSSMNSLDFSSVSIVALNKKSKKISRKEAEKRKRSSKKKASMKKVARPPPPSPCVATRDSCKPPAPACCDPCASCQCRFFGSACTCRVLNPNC

B1: rat melanocortin-3 receptor (receptor)
chain: MNSSCCPSSSYPTLPNLSQHPAAPSASNRSGSGFCEQVFIKPEVFLALGIVSLMENILVILAVVRNGNLHSPMYFFLLSLLQADLLVSLSNSLETIMIVVINSDSLTLEDQFIQHMDNIFDSMICISLVASICNLLAIAVDRYVTIFYALRYHSIMTVRKALSLIVAIWVCCGICGVMFIVYSESKMVIVCLITMFFAMVLLMGTLYIHMFLFARLHVQRIAALPPADGLAPQQHSCMKGAVTITILLGVFIFCWAPFFLHLVLIITCPTNPYCICYTAHFNTYLVLIMCNSVIDPLIYAFRSLELRNTFKEILCGCNGMNVG
notes: Stably expressed in human 293 cells from pcDNA/neo I; also called rat MC-3 receptor; rat MC3-R
B2: adrenocorticotropic hormone (peptide, UniProt P01189 138-176, looked up)
peptide: SYSMEHFRWGKPVGKKRRPVKVYPNGAEDESAEAFPLEF
B3: γ3-MSH (peptide, UniProt P01189 77-102, looked up)
peptide: YVMGHFRWDRFGRRNSSSSGSSGAGQ
modifications: ends and bridges not checked
B4: γ1-MSH (peptide, UniProt P01189 77-87, looked up)
peptide: YVMGHFRWDRF
modifications: ends and bridges not checked
B5: ACTH4-10 (peptide, UniProt P01189 141-147, looked up)
peptide: MEHFRWG
notes: domain: ACTH4-10
B6: α-melanocyte stimulating hormone (peptide, UniProt P01189 138-150, looked up)
peptide: SYSMEHFRWGKPV
modifications: ends and bridges not checked
notes: domain: αMSH; also called αMSH; α-MSH
B7: γ-melanocyte stimulating hormone (peptide, UniProt P01189 77-88, looked up)
peptide: YVMGHFRWDRFG
notes: domain: γMSH; Printed without an index; also called γMSH; γ-MSH

Tests used:
[1] = target: T1, mouse αMSH (MC-1) receptor (mouse); test: cell-based or functional assay
[2] = target: T2, human melanocortin 4 receptor; test: cell-based or functional assay
[3] = target: mouse MC-5 melanocortin receptor (mouse) (UniProt P41149); test: cell-based or functional assay
mouse MC-5 melanocortin receptor (mouse), sequence (P41149 whole entry): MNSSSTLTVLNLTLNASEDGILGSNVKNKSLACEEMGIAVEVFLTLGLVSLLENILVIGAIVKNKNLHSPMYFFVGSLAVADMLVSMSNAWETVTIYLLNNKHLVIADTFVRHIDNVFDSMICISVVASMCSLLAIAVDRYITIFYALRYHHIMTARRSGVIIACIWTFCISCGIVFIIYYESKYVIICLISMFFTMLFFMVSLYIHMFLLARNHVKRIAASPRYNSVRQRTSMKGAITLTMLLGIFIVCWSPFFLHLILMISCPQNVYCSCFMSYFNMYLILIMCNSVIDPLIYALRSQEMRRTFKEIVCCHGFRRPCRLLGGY

[4] = target: B1; test: cell-based or functional assay
[5] = target: human MC-3 receptor (human) (UniProt P41968); test: cell-based or functional assay
human MC-3 receptor (human), sequence (P41968 whole entry): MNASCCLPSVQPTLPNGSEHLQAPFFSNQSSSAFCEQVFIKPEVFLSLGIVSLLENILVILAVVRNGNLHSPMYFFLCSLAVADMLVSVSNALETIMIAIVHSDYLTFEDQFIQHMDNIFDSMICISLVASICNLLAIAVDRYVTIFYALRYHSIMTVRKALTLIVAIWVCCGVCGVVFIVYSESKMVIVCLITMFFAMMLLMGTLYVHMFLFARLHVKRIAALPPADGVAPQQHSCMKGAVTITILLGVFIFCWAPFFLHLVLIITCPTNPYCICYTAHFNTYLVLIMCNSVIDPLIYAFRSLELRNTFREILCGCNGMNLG

murine agouti peptide = target: T3, murine agouti peptide; test: competition with 125I-[Nle^4, D-Phe^7]α-MSH on 293 cells expressing rat MC-3 receptor; results not shown
[6] = target: B1; test: competition with 125I-NDP-MSH on suspended 293 cells expressing rat MC-3 receptor

With “Nle^4, D-Phe^7-αMSH (from UniProt P01189 138-150) (peptide)” the EC50, intracellular cAMP [1] was 0.028 nM and the Ec50, adenylate cyclase activity [2] was 11 pM.

Molecule “βMSH (from UniProt P01189 217-234) (peptide)” has an EC50, adenylate cyclase / cAMP-dependent β-galactosidase [3] of 5 nM.

“γ2-MSH (from UniProt P01189 77-88) (peptide)” showed an Ec50, intracellular cAMP [4] of 3 nM.

In the case of “SHU9119, Ac-Nle^4-cyclo(Asp^5, D-Nal(2)^7, Lys^10) αMSH-(4-10)-amide (from UniProt P01189 141-147) (peptide)”, the pA2 (method of Schild) [5] is reported as 8.3.

“desacetyl-αMSH (from UniProt P01189 138-150) (peptide)” was tested, and the Ec50, intracellular cAMP [4] was 8 nM.

B1: binds (murine agouti peptide).

With B2 the EC50, intracellular cAMP [1] was 8 nM, the Ec50, intracellular cAMP [4] was 4 nM and the Ec50, adenylate cyclase activity [2] was 680 pM.

For B3, the Ec50, intracellular cAMP [4] was 6 nM.

B4 showed an Ec50, intracellular cAMP [4] of 3 nM.

B5 was tested, and the “Ec50, intracellular cAMP” value [4] was 100 nM and the “Ec50, adenylate cyclase activity” value [2] was greater than 100000 pM.

For B6, the “Ec50, intracellular cAMP” value [4] was 4 nM and the Ki [6] was roughly 100 nM.

With B7 the Ki [6] was roughly 50 nM.

Source: patent US20030105024A1 (STATE OF OREGON, published 2003)
